Measured values from patent US20190201542A1 (AbbVie / Abbott, published 2019).

Key:
[1] = target: T1, DLL3 extracellular domain (amino acids 27-466) (human, UniProt Q9NYJ7 27-466); assay: fine epitope mapping (phage display peptides or yeast display of DLL3 ECD mutants)
T1 construct: also called DLL3 ECD; wild type DLL3 ECD
T1 sequence: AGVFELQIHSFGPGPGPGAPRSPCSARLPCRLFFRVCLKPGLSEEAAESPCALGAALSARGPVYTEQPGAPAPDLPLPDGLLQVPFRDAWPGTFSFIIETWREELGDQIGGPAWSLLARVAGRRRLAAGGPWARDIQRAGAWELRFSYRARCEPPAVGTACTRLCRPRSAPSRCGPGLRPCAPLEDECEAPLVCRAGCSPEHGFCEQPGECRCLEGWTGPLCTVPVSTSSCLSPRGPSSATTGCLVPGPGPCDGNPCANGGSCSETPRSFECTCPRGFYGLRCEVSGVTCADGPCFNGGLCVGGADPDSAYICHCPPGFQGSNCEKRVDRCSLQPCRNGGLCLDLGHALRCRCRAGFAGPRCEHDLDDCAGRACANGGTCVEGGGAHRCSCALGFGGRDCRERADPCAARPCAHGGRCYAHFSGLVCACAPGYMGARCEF
Description: Fine epitope mapping was further performed on selected antibodies using one of two methods. The first method employed the Ph.D.-12 phage display peptide library kit (New England Biolabs) which was used in accordance with the manufacturer's instructions. The antibody for epitope mapping was coated overnight at 50 μg/mL in 3 mL 0.1 M sodium bicarbonate solution, pH 8, onto a Nunc MaxiSorp tube (Nunc). The tube was blocked with 3% BSA solution in bicarbonate solution. Then, […] input phage in PBS+0.1% Tween-20 was allowed to bind, followed by ten consecutive washes with 0.1% Tween-20 to wash away non-binding phage. Remaining phage were eluted with 1 mL 0.2 M glycine for 10 minutes at room temperature with gentle agitation, followed by neutralization with 150 μL 1M Tris-HCl pH 9. Eluted phage were amplified and panned again with 10¹¹ input phage, using 0.5% Tween-20 during the wash steps to increase selection stringency. DNA from 24 plaques of the eluted phage from the second round was isolated using the Qiaprep M13 Spin kit (Qiagen) and sequenced. Binding of clonal phage was confirmed using an ELISA assay, where the mapped antibody or a control antibody was coated onto an ELISA plate, blocked, and exposed to each phage clone. Phage binding was detected using horseradish peroxidase conjugated anti-M13 antibody (GE Healthcare), and the 1-Step Turbo TMB ELISA solution (Pierce). Phage peptide sequences from specifically binding phage were aligned using Vector NTI (Life Technologies) against the antigen ECD peptide sequence to determine the epitope of binding.
Alternatively, a yeast display method (Chao et al., 2007, PMID: 17406305) was used to map the epitopes of selected antibodies. Libraries of DLL3 ECD mutants were generated with error prone PCR using nucleotide analogues 8-oxo-2′deoxyguanosine-5′-triphosphate and 2′-deoxy-p-nucleoside-5′triphosphate (TriLink Bio) for a target mutagenesis rate of one amino acid mutation per clone. These were transformed into a yeast display format. […]

human DLL3 [2] = target: T2, human DLL3 (human, UniProt Q9NYJ7 27-492, limits assumed); assay: screen on immobilized hDLL3 or h293-hDLL3 cells
T2 construct: also called hDLL3; DLL3 protein
T2 sequence: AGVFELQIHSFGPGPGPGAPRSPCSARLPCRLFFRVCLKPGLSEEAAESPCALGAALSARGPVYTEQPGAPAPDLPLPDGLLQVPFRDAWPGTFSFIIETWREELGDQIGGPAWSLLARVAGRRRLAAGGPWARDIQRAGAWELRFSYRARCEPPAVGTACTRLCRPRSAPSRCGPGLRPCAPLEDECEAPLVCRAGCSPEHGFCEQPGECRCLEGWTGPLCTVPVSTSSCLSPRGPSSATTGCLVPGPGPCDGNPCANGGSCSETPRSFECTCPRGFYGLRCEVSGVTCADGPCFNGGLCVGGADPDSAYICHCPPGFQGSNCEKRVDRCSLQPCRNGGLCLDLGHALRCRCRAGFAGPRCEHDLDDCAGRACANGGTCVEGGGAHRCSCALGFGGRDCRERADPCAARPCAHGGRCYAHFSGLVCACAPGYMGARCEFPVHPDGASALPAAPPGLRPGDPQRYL
Procedure, shortened: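 After 10 days in culture, supernatants of single-cell hybridomas from human DLL3-immunized mice were tested on cells and by solid-phase ELISA. A flow-cytometry signal above the control level counted as binding. The ELISA used DLL3-His coated at 0.5 μg/ml, HRP anti-mouse IgG and TMB, with reading at OD 450.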

[3] = target: T3, hASCL1 in 293 cells engineered to express ASCL1 (293-ASCL1) (human, UniProt P50553 1-236); assay: immunohistochemistry on FFPE sections, antibody at 10 ug/ml
T3 construct: whole, on cells; also called DDDK-tagged hASCL1 from pLMEGPA-hASCL1-NFlag
T3 sequence (looked up): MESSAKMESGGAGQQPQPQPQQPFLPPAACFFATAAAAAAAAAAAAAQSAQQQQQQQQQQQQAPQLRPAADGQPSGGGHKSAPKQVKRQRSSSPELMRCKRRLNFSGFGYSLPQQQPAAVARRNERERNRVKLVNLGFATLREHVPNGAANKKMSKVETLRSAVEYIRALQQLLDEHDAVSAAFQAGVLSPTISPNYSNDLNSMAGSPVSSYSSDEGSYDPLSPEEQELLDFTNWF
Description: IHC was performed essentially as follows. Planar sections of formalin fixed and paraffin embedded (FFPE) tissues were cut and mounted on glass microscope slides. After xylene de-paraffinization 5 μm sections were pre-treated with Antigen Retrieval Solution (Dako) for 20 mins. at 99° C., cooled to 75° C. and then treated with 0.3% hydrogen peroxide in PBS followed by Avidin/Biotin Blocking Solution (Vector Laboratories). FFPE slides were then blocked with 10% horse serum in 3% BSA in PBS buffer and incubated with a primary anti-ASCL1 antibody (clone SC72.2), diluted to 10 μg/ml in 3% BSA/PBS, for 30 mins. at room temperature. The FFPE slides were incubated with biotin-conjugated horse anti-mouse antibody (Vector Laboratories), diluted to 2.5 μg/ml in 3% BSA/PBS, for 30 mins. at room temperature followed by incubation in streptavidin-HRP (ABC Elite Kit; Vector Laboratories). Chromogenic detection was developed with 3,3′-diaminobenzidine (Thermo Scientific) for 5 mins. at room temperature and tissues were counterstained with Meyer's hematoxylin (IHC World), washed with alcohol and immersed in xylene. Sections were then viewed by brightfield microscopy and ASCL1 expression was noted.
PDX tumors were stained by IHC (FIG. 12) and ASCL1 protein expression by IHC correlates with the expected ASCL1 mRNA expression based on microarray results.

human ASCL1 = target: T4, human ASCL1 (human, UniProt P50553 1-236, limits assumed); assay: screen on immobilized hASCL1 or h293-hASCL1 cells
T4 construct: Transcription factor; also called hASCL1; immobilized human ASCL1
T4 sequence (looked up): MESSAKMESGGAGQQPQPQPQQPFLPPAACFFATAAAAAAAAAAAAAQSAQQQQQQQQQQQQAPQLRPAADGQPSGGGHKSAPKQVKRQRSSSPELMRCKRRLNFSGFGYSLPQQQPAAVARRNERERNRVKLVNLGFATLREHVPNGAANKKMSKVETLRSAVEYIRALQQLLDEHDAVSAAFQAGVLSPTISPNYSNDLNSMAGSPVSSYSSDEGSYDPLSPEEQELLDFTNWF

human DLL3 [4] = target: T2, human DLL3; assay: surface plasmon resonance

| Binder | binding result [1] | binding result (human DLL3 [2]) | binding result [3] | binding result (human ASCL1) | binding result (human DLL3 [4]) |
| --- | --- | --- | --- | --- | --- |
| SC16.23 (antibody, V domains shown, murine mAb) VH: QVTLKESGPGILQPSQTLSLTCSFSGFSLSTSNTGIGWIRQPSGTGLEWLAHIWWNDDKYYNPSLKSRLTISKETSNNQVFLKITNVDTADTASYFCVQIGRDYSNYAWYFDVWGAGTTVTVSS VL: QIVLTQSPAIMSASPGEKVTLTCSASSSVSSRYLYWYQQKPGSSPKLWIYSTSNLASGVPARFSGSGSGTSYSLIISSMEAEDAASYFCHQWSNYPLTFGAGTKLELK | binds | binds |  |  |  |
| SC16.34 (antibody, V domains shown, murine mAb) VH: QIQLVQSGPELKRPGETVKISCKASGYTFTNYGMNWVKQAPGKGLKWMGWINTYTGDPTYADDFKGRFAFSLETSASTAYLQINNLKNEDTATYFCARIGGNSPSDYWGQGTSLTVSS VL: SIVMTQTPKFLLVSAGDRVTITCKASQSVSNDVAWYQQKPGQSPKLLIYYASNRYSGVPDRFTGSGYGTDFTFTISTVQAEDLAVYFCQQDYSSPWTFGGGTKLEIK | binds | binds |  |  |  |
| SC16.56 (antibody, V domains shown, murine mAb) VH: QIQLVQSGPELKKPGETVKISCKASGYTFTNYGMNWVKQAPGKGLKWMAWINTYTGEPTYADDFKGRFAFSLETSASTASLQIINLKNEDTATYFCARIGDSSPSDYWGQGTTLTVSS VL: SIVMTQTPKFLLVSAGDRVTITCKASQSVSNDVVWYQQKPGQSPKLLIYYASNRYTGVPDRFAGSGYGTDFSFTISTVQAEDLAVYFCQQDYTSPWTFGGGTKLEIR | binds | binds |  |  |  |
| SC72.2 (antibody, V domains shown, murine mAb; also called anti-ASCL1 antibody clone SC72.2) VH: QVQLQQSGAELVRPGASVTLSCKASGYTFIDYEMHWVKQTPVHGLEWIGAIDPETGGTTYNQNFKGKATLTADKSSNTAYMELRSLTSGDSAVYYCSRGGLDYWGQGTTLTVSS VL: not shown |  |  | binds | binds |  |
| chimeric SC16.15 (antibody, human IgG1, kappa, V domains shown, murine V regions on human IgG1/kappa; also called chimeric parent antibody of hSC16.15) VH: QVQLQQSGAELAKPGASVKMSCKASGYTFTRYWIHWIKQRPGQGLEWIGYINPTTVYTEFNQNFKDKATLTADKSSTTASMQLSSLTSEDSAVYYCARGGSNFFDYWGQGTTLTVSS VL: DIQMTQSPASLAASVGETVAITCRASENIYYNLAWYQQKQGKSPQLLIYTANSLEDGVPSRFSGSGSGTQYSLKINSMQPEDSATYFCKQAYDVPPTFGGGTKLEIKR |  |  |  |  | binds |
